According to patent publication US20260250718:

What was measured:
Experiment in all cases: cell_activity
[1] = test system: T1, Cyin14 (metagenome (uncultured organism))
T1 sequence: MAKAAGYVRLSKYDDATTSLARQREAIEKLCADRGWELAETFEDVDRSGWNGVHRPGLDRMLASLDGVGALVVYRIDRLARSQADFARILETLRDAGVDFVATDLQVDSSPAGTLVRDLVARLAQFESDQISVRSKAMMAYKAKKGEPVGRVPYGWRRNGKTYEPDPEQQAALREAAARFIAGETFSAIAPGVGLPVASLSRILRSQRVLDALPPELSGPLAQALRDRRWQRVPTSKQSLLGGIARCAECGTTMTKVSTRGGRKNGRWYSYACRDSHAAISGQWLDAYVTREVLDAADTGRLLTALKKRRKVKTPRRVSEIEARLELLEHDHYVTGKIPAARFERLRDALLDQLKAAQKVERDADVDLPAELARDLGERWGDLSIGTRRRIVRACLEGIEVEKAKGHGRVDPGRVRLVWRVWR

[2] = test system: T2, Cyin16 (metagenome (uncultured organism)); conditions: EGFP+ 293T cells at day 20
T2 sequence: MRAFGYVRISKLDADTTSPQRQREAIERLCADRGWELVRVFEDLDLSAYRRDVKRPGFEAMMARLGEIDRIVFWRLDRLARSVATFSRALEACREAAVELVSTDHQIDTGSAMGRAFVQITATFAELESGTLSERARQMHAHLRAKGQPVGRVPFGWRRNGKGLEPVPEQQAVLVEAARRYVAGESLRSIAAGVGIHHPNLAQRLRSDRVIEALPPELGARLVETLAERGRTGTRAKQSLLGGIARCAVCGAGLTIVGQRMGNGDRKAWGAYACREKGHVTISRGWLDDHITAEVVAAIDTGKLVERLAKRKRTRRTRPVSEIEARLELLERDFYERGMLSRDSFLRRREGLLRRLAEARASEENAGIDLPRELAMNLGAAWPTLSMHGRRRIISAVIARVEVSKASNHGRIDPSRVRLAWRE

[3] = test system: T3, Cyin11 (metagenome (uncultured organism)); conditions: EGFP+ 293T cells at day 20
T3 sequence: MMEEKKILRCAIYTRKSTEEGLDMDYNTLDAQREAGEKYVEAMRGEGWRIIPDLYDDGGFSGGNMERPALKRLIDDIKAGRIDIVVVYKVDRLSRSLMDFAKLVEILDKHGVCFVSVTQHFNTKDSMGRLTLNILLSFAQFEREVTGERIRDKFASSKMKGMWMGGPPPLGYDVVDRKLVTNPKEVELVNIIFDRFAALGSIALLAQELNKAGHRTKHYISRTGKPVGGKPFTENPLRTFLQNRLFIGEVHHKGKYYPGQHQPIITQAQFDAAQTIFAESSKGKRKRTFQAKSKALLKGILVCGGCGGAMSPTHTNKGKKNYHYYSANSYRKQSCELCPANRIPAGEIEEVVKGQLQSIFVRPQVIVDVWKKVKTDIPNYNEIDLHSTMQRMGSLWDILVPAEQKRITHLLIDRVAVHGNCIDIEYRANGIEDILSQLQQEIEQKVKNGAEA

[4] = test system: T4, Cyin15 (metagenome (uncultured organism)); conditions: EGFP+ 293T cells at day 20
T4 sequence: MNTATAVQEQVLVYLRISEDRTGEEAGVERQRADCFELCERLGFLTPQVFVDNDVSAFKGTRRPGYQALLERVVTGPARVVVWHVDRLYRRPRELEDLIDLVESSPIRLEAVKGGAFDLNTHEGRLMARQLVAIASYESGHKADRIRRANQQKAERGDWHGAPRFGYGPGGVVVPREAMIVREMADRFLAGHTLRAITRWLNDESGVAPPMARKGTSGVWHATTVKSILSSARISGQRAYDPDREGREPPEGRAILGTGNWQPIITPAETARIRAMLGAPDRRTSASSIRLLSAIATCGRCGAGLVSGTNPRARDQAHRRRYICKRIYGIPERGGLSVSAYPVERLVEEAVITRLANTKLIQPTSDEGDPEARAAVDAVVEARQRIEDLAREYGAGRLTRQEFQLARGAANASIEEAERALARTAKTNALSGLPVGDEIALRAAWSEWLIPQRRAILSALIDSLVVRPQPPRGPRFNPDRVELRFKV

[5] = test system: T5, phiC31 integrase (Streptomyces phage phiC31?); conditions: positive control; EGFP+ 293T cells at day 20
T5 sequence: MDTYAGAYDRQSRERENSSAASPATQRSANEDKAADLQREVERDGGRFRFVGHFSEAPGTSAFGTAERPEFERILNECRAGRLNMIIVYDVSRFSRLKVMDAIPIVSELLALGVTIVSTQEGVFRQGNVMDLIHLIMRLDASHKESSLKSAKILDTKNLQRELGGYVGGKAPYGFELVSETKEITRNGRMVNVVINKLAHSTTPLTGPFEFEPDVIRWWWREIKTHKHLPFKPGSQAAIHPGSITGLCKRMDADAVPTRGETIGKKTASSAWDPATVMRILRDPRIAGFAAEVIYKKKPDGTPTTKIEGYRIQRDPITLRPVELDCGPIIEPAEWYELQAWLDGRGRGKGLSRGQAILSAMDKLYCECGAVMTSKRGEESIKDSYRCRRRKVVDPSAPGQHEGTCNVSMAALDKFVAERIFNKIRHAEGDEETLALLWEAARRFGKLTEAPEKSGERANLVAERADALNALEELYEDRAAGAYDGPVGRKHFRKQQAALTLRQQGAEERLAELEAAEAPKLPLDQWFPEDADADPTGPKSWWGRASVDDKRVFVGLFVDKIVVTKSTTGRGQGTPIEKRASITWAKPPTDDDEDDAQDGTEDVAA

[6] = test system: T6, Cyin12 (metagenome (uncultured organism)); conditions: EGFP+ 293T cells at day 20
T6 sequence: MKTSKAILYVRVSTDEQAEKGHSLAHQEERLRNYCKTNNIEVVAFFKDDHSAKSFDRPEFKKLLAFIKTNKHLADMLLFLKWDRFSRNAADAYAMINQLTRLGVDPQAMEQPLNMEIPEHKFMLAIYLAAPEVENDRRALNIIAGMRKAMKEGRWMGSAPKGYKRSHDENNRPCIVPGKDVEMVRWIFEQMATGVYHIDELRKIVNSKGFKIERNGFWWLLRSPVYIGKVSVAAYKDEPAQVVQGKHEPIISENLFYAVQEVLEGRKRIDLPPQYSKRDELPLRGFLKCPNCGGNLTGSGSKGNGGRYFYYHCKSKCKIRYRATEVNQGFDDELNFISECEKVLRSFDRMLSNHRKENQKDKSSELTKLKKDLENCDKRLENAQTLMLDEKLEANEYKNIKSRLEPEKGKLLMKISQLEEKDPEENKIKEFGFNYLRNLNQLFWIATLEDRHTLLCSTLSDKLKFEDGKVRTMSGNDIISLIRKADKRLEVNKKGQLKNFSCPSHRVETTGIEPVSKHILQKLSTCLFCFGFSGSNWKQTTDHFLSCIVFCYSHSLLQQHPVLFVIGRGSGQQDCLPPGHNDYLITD

ACGTATACTGGCGTACACTGATCAAGGAGGGGCCATGGCCAAGGCAGCCGGGTACGTCAGGCTCAGCAAGTACGACGACGCCACCACTAGTCTCGCCCGCCAGCGTGAGGCCATCGAAAAGCTGTGCCCGGCTCTGGGATCGCCTCACCGAGATCGAGCCGCACGCGTTCGAACCGGTGGAGACGAGGTGAAGCCGAACAGGGTCGCGCTCTATCTCCAAGACAAGCACCCCCTCCGCGAGGGGATGAAGTA (double strand) [14-B1]
activity ([1]; EGFP+ 293T cells at day 20): 1.38%

AGCGCCACTTCGTGTGGGGCGTGTTGGAGGATCTCCAAAGCCTCTTCGGCTGAGCCCGCCTCCGTGACGTCGGCGCCCTCCACGCAGTTCTGCAGGACCTGGATGAGGCCCTTTCGAACCAGCGTGTGTACGTGGAGCGGAAGGGGCCGATTATTGACTGAACCGTAGACCAGCCCTATGCTGCTATGGCCGACCAGAGGAGGGGGAGCCATGCGCGCCTTCGGCTACGTCCGGATCTCCAAGCTCGACGCCG (double strand) [16-P2]
activity [2]: 2.33%

ATCCAATGTGCAAGGCCATTTAGATGTCGCTTTGGCAAACACACTCGGCCGTTTGTGTCATGAATTATAATATCAGACATGCTACTGAAAAAGATTTATCTGCACTTTGCGATATTGAACATGAATCTTTATTTCCCAAACCAAAAAATGCGTTACCGTTCCAGCGCGTGCCGGTAATTGCAAATGCGACACCAGATAGGCTTTTATATTTCAGCCCCTGATATTCATAGCCGTCAGCCAGCACATACACAT (double strand) [11-B1]
activity [3]: 1.78%

GGAATCAGCCGGGGCTTCTCGGCCGTCAACATCCGCAAGTTCGTGGTGCGAGCATCGCGCCTGTCGGAGCTGGTCGATCTGCAGAGCCTCACGCCGTCCGCGGCCCTGTTCCTCGAGGCATCCATCCGGGACGACGGCCCCGGAGAGCGATCCCGCTGTGAGCAGGCCGCCCTCGGCAATGTCGAGCGCCGCATGCTGGCCGACCACCTGTTCGATCTCGCTTGCGAGCACCGGCTTCACCGCTGGGTCCGCGCT (double strand) [15-B2]
activity [4]: 1.12%

GGGTATTCGGCCTCTCTCCCCGTCACGTCCGCGACGTCTTCGTCGCCGGGGAGCTGGTGGTGGAAGACCGGCGGCCAACGCGGGTCCAGCCGGAGGACATCGTCTGGGACGCCGCCGCGGAGGCCGCGCCGACCGCGGCTGGGAGCTCGCCGAGACCTTCGAGGACGTGGACCGCTCCGGGTGGAACGGGGTTCACCGGCCCGGGCTCGACCGGATGCTGGCCTCACTCGACGGCGTTGGCGCGCTGGTCGT (double strand) [14-P1]
activity ([1]; EGFP+ 293T cells at day 20, donor plasmid integration into genome, significantly above no-integrase control): 10.1%

GTCGACGATGTAGGTCACGGTCTCGAAGCCGCGGTGCGGGTGCCAGGGCGTGCCCTTGGGCTCCCCGGGCGCGTACTCCACCTCACCCATCTGGTCCATCATGATGAACGGGTCGAGGTGGCGGTAGTTGATCCCGGCGAACGCGCGGCGCACCGGGAAGCCCTCGCCCTCGAAACCGCTGGGCGCGGTGGTCACGGTGAGCACGGGACGTGCGACGGCGTCGGCGGGTGCGGATACGCGGGGCAGCGTCAGCGGGTTCTCGACGGTCACGGCGGGCATGTCGAC (double strand) [phiC31 attB]
activity [5]: 8.87%

TCGATTCGGTTCGCCGCGCCGCTACCGGATCGCGCCGAAGAGATGACTGATCTCGAGGCTCCGGCCCGAAGGCCTCCTCAACGGCTTCGAGGATCGATTCGGCGCGCACGGGTGCCTCTCTCCGCGCGCCAGCGCGAGGCAATCGAGCGCCTCTGTGCTGACCGCGGGTGGGAGCTCGTTCGAGTCTTCGAGGATCTCGACCTCTCGGCCTACCGCCGCGACGTGAAGCGGCCGGGCTTCGAGGCCATGATGG (double strand) [16-P1]
activity [2]: 1.69%

TGCCGGCCAGTGCCGTCTCGGAGGTGGTGAACCAGGTTTCGGATGAAGTCGTCGGCCTCGGTCCCATCGAGCGATTGCTCAAGGACCCGGAGATCAGCGAGGTGATGGTGAACGGGGCCGACGACGTGGTCGTCGACCAGGAGGACCTTCACGAGGCCGCCTCTCGCAACGGGAACCGGGCCACGACCCGCGTGCCCTTCCCCGGCCGCGGATAGACGTAGAGCCTGCCCCCAGCCTCCCGCACGCGGCGGCG (double strand) [16-B2]
activity ([2]; significantly above no-integrase control): 4.23%

TTGTCTTCCTCTGCAGTCAATTGTTTTGGATCATCTTTTTTGGGAACAACAAGATTACTTTGAACATTATCTCTATTTACACCGGTTGAAACCTGGTCCTTCTTATTAAGAACTTCTGTATTTGTCAAAGCAATTCTTTATGTCAGAGTGAGTACAGACGAACAGGCTGAAAAAGGTCACAGTCTGGCTCATCAGGAAGAACGACTTCGTAATTATTGCAAAACAAATAATATCGAGGTCGTTGCTTTTTTTA (double strand) [12-P1]
activity [6]: 1.53%
